{"source": "the nanobody polyreactivity screen of Harvey et al. (2022)"}
{"assay": "yeast display, Sf9 membrane polyspecificity reagent, FACS + sequencing; frameworks hold sequencing errors", "procedure,_shortened": "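A nanobody's polyreactivity label depends on the gate it was sorted from. Yeast display cells were stained with 10% biotinylated, detergent-solubilized Sf9 membrane reagent for 1 hour at 4 °C, enriched on streptavidin microbeads and sorted by FACS. The low and high (top ~1%) gates were set on anti-HA fluorescence for expression and streptavidin fluorescence for reagent binding.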"}
{"sequence": "QVQLVESGGGLVQAGGSLRLSCAASGIIFASNGMGWYRQAPGKERELLAAISSGGSTNYADSVKGRFTISRDNAKNTVYLQMNSLKPEDTAVYYCSTSGPQYYSRNFDYWGLGTQVTVSS", "polyreactivity (PSR sort gate)": "low polyreactivity"}
{"sequence": "QVQLVESGGGLVQAGGSLRLSCAASGIIFASYAMGWYRQAPGKERELVAAITWDGDSTYYADSVKGRFSISRDNAKNTVYLQRNSLKPEDTAVYYCAADGVYVGFYGYDYDYWGQGTQVTVSS", "polyreactivity (PSR sort gate)": "low polyreactivity"}
{"sequence": "QVQLVESGGGLVQAGGSLRLSCAASGIIFAVYTMGWYRQARGKERELVAALSSGGSTYYADSVQGRFTISRDNAKNTVYLQMNSLKPEDTAVYYCNAQYFWLWLTYDFDYWGQGTQVTVSS", "polyreactivity (PSR sort gate)": "high polyreactivity"}
{"sequence": "QVQLVESGGGLVQAGGSLRLSCAASGIIFAWYAMGWYRQAPGKERELLAAISWSGGSTYYADSVKGRFTISRDNAKNTVYLQMNILKPEDSAVYYCAPFPRRQGKYDYWGKGTQVTVSS", "polyreactivity (PSR sort gate)": "high polyreactivity"}
{"sequence": "QVQLVESGGGLVQAGGSLRLSCAASGIIFAWYAMGWYRQAPGKERELVAAINWSGGSTYYADSVKGRFTISRDNAKNTVYLQMNSLKPEDTAVYYCNADFQDRTDDYDYWGQGTQVTVSS", "polyreactivity (PSR sort gate)": "low polyreactivity"}
{"sequence": "QVQLVESGGGLVQAGGSLRLSCAASGIIFAWYAMGWYRQAPGKERELVAAISWSGGSTYYADSVKGRFTISRDNAKNTVYLQMNSLKPEDTAVYYCAADSDYGGYDYWGQGTQVTVSS", "polyreactivity (PSR sort gate)": "high polyreactivity"}
{"sequence": "QVQLVESGGGLVQAGGSLRLSCAASGIIFAWYAMGWYRQAPGKERELVAAISYSGGTTYYADSVKGRFTISRDNAKNTVYLQMNSLKPEDTAVYYCAARLHHFFTYDYWGQGTQVTVSS", "polyreactivity (PSR sort gate)": "low polyreactivity"}
{"sequence": "QVQLVESGGGLVQAGGSLRLSCAASGIIFCDNAMGWYRHAPGKERELVAAITIGGTSTYYADSVKGRFTISRDNAKNTVYLQMNSLKPEDTAVYYCAKTILYDCDYWGQGTQVTVSS", "polyreactivity (PSR sort gate)": "low polyreactivity"}
{"sequence": "QVQLVESGGGLVQAGGSLRLSCAASGIIFDCNAMGCYRQAPGKERELVAANTSSTDSTYYADSVKGRFTISRDNAKNTVYLQMNILKPEDTAVYYCAAAYPSKTFDYWGQGTHVTVSS", "polyreactivity (PSR sort gate)": "low polyreactivity"}
{"sequence": "QVQLVESGGGLVQAGGSLRLSCAASGIIFDDYAMGWYRQAPGKERELVAAIRSGVSTNYADSVKGRFTISRDNAKNTVYLQMNSLKPEDTAVYYGAARNTAPYFTEYDYWGQGTQVTVSS", "polyreactivity (PSR sort gate)": "low polyreactivity"}
{"sequence": "QVQLVESGGGLVQAGGSLRLSCAASGIIFDDYAMGWYRQAPGKERELVAAISVSGGSTYNADSVKGRFTISRDNAKNTVYLQMNSLKPEDTAVYYCAARLIVGRFLRYDYWGQGTQVTVSS", "polyreactivity (PSR sort gate)": "high polyreactivity"}
{"sequence": "QVQLVESGGGLVQAGGSLRLSCAASGIIFDDYAMGWYRQAPGKERELVAAITDSGGSTYYADSVKGRFTISRDNAKNTVYLQMNSLKPEVTAVYYCAARTQRRVNRVGYRSNYYYWGQGTQVTVSS", "polyreactivity (PSR sort gate)": "low polyreactivity"}
{"sequence": "QVQLVESGGGLVQAGGSLRLSCAASGIIFDEYAMGWYRQAPGKERELVAAITWSGGSTYYADSVKGRFTISRDNAKNTVYLQMNSLKPEDTAVYYCNAVQSDEIAYGDTRLDYWGQGTQVTVSS", "polyreactivity (PSR sort gate)": "low polyreactivity"}
{"sequence": "QVQLVESGGGLVQAGGSLRLSCAASGIIFDGNAMGWYRQAPGKERELVASITSDSSTNYADSEKGRFTISRDNAKNTVYLQMNSLKPADTAVYYCAADHWIAPRRDYWGQGTQVTVSS", "polyreactivity (PSR sort gate)": "low polyreactivity"}
{"sequence": "QVQLVESGGGLVQAGGSLRLSCAASGIIFDHYAMGWYRKAPGKERELVAAITSGGRTYYADSVKGRFTISRDNAKKTVYLQMNSLKPEDTAVYYCNARFRSSARLAYYYWGQGTQVTVSS", "polyreactivity (PSR sort gate)": "high polyreactivity"}
{"sequence": "QVQLVESGGGLVQAGGSLRLSCAASGIIFDLYTKGWYRQAPGKEREFVATINWGGGNTYYADSVKGRFTISRDNAKNTVYLQMNSLKPDDTAVYYCAAAYTWYGYSQAYYYWGQGSQVTVSS", "polyreactivity (PSR sort gate)": "low polyreactivity"}
{"sequence": "QVQLVESGGGLVQAGGSLRLSCAASGIIFDSNVMGWYRQAPGKERELVAAISRSGSRTYYADSVKGRFTISRDNSKNTVYLEMNSLKPEDTAVYYCATDSHTADEYEHWGQGTQVTVSS", "polyreactivity (PSR sort gate)": "high polyreactivity"}
{"sequence": "QVQLVESGGGLVQAGGSLRLSCAASGIIFDTNDIGWYRLGPGKERELVATITQRGGTTYYADSVKGRFTISRDNATNTVYLQMNSLKPEDTAVYYCDADRRSKYDYWGQGTQVSVSS", "polyreactivity (PSR sort gate)": "low polyreactivity"}
{"sequence": "QVQLVESGGGLVQAGGSLRLSCAASGIIFDWYTMGWYRQAPGKERELVAAISWRGGRTYYADSVKGRFTISRDNAKNTVYLQMNSLKPEDTAVYYCAAEAPVQPFYVFNTGIYELDYWGQGTQVTVSS", "polyreactivity (PSR sort gate)": "low polyreactivity"}
{"sequence": "QVQLVESGGGLVQAGGSLRLSCAASGIIFDYNAMGWYRQAPGKERELVAAISGRSGRTYYADSVKGRFTISRDNAKNTVYLQMNSLKPEDTAVYYCAARWYAGGNYWGQGTQVTVSS", "polyreactivity (PSR sort gate)": "high polyreactivity"}
{"sequence": "QVQLVESGGGLVQAGGSLRLSCAASGIIFELYAMGWYRQAPGKERELVAAISISGDSTYYADSVTGRFTISRDTAKNTVYLQMKSLKPEDTAVYYCAKQSYRWPYLVTKYYEYDYWGQGTQVTVSS", "polyreactivity (PSR sort gate)": "low polyreactivity"}
{"sequence": "QVQLVESGGGLVQAGGSLRLSCAASGIIFENYAMGWYRQAPGKERELVAAINKRGSRTYFADSVTGRFTISRDNAKNTVYLQMNSLKPEDTAVYYCNAVNPYYAPTDRRVGYDYWGQGTQVTVSS", "polyreactivity (PSR sort gate)": "high polyreactivity"}
{"sequence": "QVQLVESGGGLVQAGGSLRLSCAASGIIFERYAMGWYRQAPGKERELVATISWSGGSTRYADSVKGRFTISRDNAKNTVYLQMNSLKPEDTAVYYCAAPSYFRMGYWGQGTQVTVSS", "polyreactivity (PSR sort gate)": "low polyreactivity"}
{"sequence": "QVQLVESGGGLVQAGGSLRLSCAASGIIFESYAMGSYRQAPGKEREFVAAISSRGGSTYYADSVKGRFTISRDNAKNTVYLQMNSLKPEDTAVYYCAARGYRRTFDYREYDSWGQGTQVTVSS", "polyreactivity (PSR sort gate)": "low polyreactivity"}
{"sequence": "QVQLVESGGGLVQAGGSLRLSCAASGIIFESYAMGWYRPAPGKERELVAAISWDGGSTYYADSVKGRFTISRDNAKNTVYLQMNSQKPEDTAVYYCAAESYGIYDGYDYWGQGTQVTVSS", "polyreactivity (PSR sort gate)": "high polyreactivity"}
{"sequence": "QVQLVESGGGLVQAGGSLRLSCAASGIIFEYYAMGWYIQAPGKERELVAAISSDTSTNYADSVKGRFTISRDNAKNTVYLQMNSLKPEDTAVYYCNADAYYDTYGIGVGTDYDYWGQGTQVTVSS", "polyreactivity (PSR sort gate)": "low polyreactivity"}
{"sequence": "QVQLVESGGGLVQAGGSLRLSCAASGIIFEYYAMGWYRQAPGKERELVAAITWNGGRTYYADSVKGRFTISRDNAKNTVYLQMNSLKPEDTAVYYCAARKPRSGGPFDYWGQGTQVTVSS", "polyreactivity (PSR sort gate)": "high polyreactivity"}
{"sequence": "QVQLVESGGGLVQAGGSLRLSCAASGIIFFHYAMGWYRQAPGKERELVAAITWSGGSTYYADSVKGRFTISRDNAKNTVYLKMNSLKPEDSAVYYCNAVLHRRLYDYWGQGPQVTVSS", "polyreactivity (PSR sort gate)": "high polyreactivity"}
{"sequence": "QVQLVESGGGLVQAGGSLRLSCAASGIIFFRYAMGWYRQAPGKERELVAAISLSGGRTYYADSVKGRFTISRDNANNTVYLQMNSVKPEDTAVYYCNTLHRYSSQRYDYWGQGTQVTVSS", "polyreactivity (PSR sort gate)": "high polyreactivity"}
{"sequence": "QVQLVESGGGLVQAGGSLRLSCAASGIIFFYNAMGWYRQAPGKERELVAAIRRGGRTNYADSVKGRFTISRDNAKNTVYLQMNSLKPEDTAVYYCNKDFYPGDYWGQGTQVTVSS", "polyreactivity (PSR sort gate)": "low polyreactivity"}
{"sequence": "QVQLVESGGGLVQAGGSLRLSCAASGIIFFYNAMGWYRQAPGKERELVAAITIGGITYADSVKGRFTISRDNAKNTVYLQMNSLNPEDTAVYYCNKRTDSDSGHWEHDYWGQGTQVTVSS", "polyreactivity (PSR sort gate)": "low polyreactivity"}
{"sequence": "QVQLVESGGGLVQAGGSLRLSCAASGIIFFYYAMGWYRQAPGKERELVAANSSDGSTYYADSVKGRFTISRDNAKNTVYLQMNSLKPEDTAVYYCAVDHYSARLLARYDYWGQGTQVTVSS", "polyreactivity (PSR sort gate)": "low polyreactivity"}
{"sequence": "QVQLVESGGGLVQAGGSLRLSCAASGIIFFYYAMGWYRQAPGKERELVASISSGGSTNYADSVKGRFTISRDNAKNTVYLQMNSLKPEDTALYYCAARRYYVRIQGYKLDYWGHGTQVTVSS", "polyreactivity (PSR sort gate)": "low polyreactivity"}
{"sequence": "QVQLVESGGGLVQAGGSLRLSCAASGIIFGDNAMGLYRQEPGKERELVATISSSASTNYADSVKGRFTISRDNAKNTVYLQMNSLKPEDTAVYYCAADVYSPPNYDYWGQGTQVTVSS", "polyreactivity (PSR sort gate)": "low polyreactivity"}
{"sequence": "QVQLVESGGGLVQAGGSLRLSCAASGIIFGFNTMGWYRQAPGKERELVAAINGSDGSTYADSVKGRFTISRDNAKNTVYLLMNSLKPEDTAVYYCAARYGSRKEYTYADMDYWGQGTQVTVSS", "polyreactivity (PSR sort gate)": "low polyreactivity"}
{"sequence": "QVQLVESGGGLVQAGGSLRLSCAASGIIFGGYAMGWYRQAPGKERELVARITSGGSTNYADSVKGRFTISRDNAKNTVYLQMNSLKPEDTAVYYCAARSFWKWGYYYWGQGTQVTVSS", "polyreactivity (PSR sort gate)": "high polyreactivity"}
{"sequence": "QVQLVESGGGLVQAGGSLRLSCAASGIIFGGYAMGWYRQAPGKERELVARITSGGSTNYADSVKGRFTISRDNAKNTVYLQMNSLKPEDTAVYYCNARGGWSWRFYYWGQGTQVTVSS", "polyreactivity (PSR sort gate)": "high polyreactivity"}
{"sequence": "QVQLVESGGGLVQAGGSLRLSCAASGIIFGGYDMGWYRQAPGKERELVAGIRSGGSTYYADSVKGRFTISRDNAKNTVYLQMNSLKPEDTAVYYCAADSYTEVDYWGQGSQVTVSS", "polyreactivity (PSR sort gate)": "low polyreactivity"}
{"sequence": "QVQLVESGGGLVQAGGSLRLSCAASGIIFGGYTMGWSRQAPGKERELVAAISWSGVGTYYADSVKGRFTISRDNAKNTVYLQMNSLKPEDTAVYYCAAWAYYSDDDEYWGQGTQVTVSS", "polyreactivity (PSR sort gate)": "high polyreactivity"}
{"sequence": "QVQLVESGGGLVQAGGSLRLSCAASGIIFGHYDMGWYRQAPGKERELVAAITFTGDSTYYADSVKGRFTISRDNAKNTVYLQMNSLKPEDTAVYYCAAETPVPWGSWGYDYWGQGTQVTVSS", "polyreactivity (PSR sort gate)": "low polyreactivity"}
{"sequence": "QVQLVESGGGLVQAGGSLRLSCAASGIIFGKNAMGWYRQAPGKERELVAAISSSGGSTYYADSVKGRFTISRDNAKNTVYLQMNSLKPEDTAVYYCATERGSRRSGSRMDYWGQGTQVTVSS", "polyreactivity (PSR sort gate)": "high polyreactivity"}
